Laboratory results reported in patent US20250136702A1, “HUMAN LIFR ANTIGEN BINDING PROTEIN, PREPARATION METHOD THEREFOR, AND APPLICATION THEREOF” (NONA BIOSCIENCES (SUZHOU) CO., LTD., priority 2020, published 2025).

Columns and labels:
[1] = target: human LIFR/gp130 heterodimer expressed on the surface of 293T cells (human) (UniProt P42702); assay: flow cytometry on HEK293T-huLIFR/gp130 cells, median fluorescence, span of the fitted curve
[2] = target: human LIFR expressed on the surface of 293T cells (human) (UniProt P42702); assay: flow cytometry on HEK293T-huLIFR cells, median fluorescence, span of the fitted curve
Sequence of human LIFR expressed on the surface of 293T cells (human) (P42702 45-1097): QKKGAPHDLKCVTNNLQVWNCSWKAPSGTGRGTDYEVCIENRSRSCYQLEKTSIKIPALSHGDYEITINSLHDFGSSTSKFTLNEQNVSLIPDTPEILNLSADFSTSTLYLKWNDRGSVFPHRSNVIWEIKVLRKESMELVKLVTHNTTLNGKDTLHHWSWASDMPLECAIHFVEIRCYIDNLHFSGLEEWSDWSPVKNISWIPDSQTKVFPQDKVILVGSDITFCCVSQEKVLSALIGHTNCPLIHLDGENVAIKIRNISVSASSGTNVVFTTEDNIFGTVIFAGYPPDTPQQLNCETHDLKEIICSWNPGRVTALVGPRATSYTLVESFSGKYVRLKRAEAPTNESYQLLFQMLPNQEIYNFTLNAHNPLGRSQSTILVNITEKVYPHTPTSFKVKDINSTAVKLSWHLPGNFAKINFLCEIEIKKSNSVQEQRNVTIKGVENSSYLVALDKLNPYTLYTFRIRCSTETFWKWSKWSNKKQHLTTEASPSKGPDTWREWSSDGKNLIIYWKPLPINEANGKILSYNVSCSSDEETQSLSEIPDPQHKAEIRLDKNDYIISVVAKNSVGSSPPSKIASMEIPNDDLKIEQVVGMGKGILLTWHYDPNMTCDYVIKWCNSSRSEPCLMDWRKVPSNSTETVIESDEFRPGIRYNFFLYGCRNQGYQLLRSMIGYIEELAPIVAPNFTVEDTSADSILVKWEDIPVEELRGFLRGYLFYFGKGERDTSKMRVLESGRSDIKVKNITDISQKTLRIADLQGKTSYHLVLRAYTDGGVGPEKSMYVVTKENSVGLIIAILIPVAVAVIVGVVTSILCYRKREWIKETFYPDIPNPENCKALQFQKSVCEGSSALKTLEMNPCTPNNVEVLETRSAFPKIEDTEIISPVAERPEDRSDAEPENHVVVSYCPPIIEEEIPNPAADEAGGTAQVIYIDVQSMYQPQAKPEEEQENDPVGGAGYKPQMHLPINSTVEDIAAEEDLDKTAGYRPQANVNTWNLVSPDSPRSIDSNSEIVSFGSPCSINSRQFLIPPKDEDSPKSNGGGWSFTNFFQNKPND

Sequence of human LIFR/gp130 heterodimer expressed on the surface of 293T cells (human) (P42702 45-1097, chain 1 of 2): as the sequence (P42702 45-1097) above
Sequence of human LIFR/gp130 heterodimer expressed on the surface of 293T cells (human) (P40189 23-918, chain 2 of 2, further chain): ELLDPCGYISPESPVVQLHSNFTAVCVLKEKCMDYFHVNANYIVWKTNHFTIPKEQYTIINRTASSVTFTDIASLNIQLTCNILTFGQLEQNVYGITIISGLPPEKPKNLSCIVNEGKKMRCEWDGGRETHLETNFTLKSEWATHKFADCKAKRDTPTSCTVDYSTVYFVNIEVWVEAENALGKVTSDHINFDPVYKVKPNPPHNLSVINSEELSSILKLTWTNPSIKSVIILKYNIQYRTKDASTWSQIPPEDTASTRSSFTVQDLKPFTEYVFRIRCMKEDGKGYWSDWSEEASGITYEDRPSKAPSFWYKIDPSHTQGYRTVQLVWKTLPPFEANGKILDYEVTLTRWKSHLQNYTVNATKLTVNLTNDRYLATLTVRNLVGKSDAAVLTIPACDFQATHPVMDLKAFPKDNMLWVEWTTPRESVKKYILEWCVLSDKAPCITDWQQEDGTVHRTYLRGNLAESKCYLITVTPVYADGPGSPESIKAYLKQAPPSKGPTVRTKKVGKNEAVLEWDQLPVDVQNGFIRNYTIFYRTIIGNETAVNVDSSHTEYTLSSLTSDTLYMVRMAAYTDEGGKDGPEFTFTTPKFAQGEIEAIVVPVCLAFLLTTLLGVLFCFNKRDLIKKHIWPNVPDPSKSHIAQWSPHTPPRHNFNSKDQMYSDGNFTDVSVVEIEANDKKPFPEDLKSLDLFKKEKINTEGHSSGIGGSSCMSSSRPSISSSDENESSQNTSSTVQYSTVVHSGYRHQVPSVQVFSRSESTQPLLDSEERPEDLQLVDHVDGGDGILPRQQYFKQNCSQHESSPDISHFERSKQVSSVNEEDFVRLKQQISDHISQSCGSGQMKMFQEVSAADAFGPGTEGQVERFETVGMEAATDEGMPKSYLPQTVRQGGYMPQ

## hIgG1 (antibody)
[1]
  Span: 90.1
[2]
  Span: 12
